For data set [1], the target named is Bacillus cereus P5CR (Bc_2977), full-length (Bacillus cereus). Nature of the data set: SEC; HiLoad 16/600 Superdex 200 Prep Grade; 1.5 mL of purified protein at ~5 mg/mL; run in lysis buffer (50 mM HEPES pH 8.0, 500 mM NaCl, 5% glycerol, 20 mM imidazole, 10 mM β-mercaptoethanol); calibrated with chymotrypsinogen A, albumin, SpP5CR decamer (275 kDa) and thyroglobulin. (Size exclusion chromatography separates by hydrodynamic size, large species first.)

Data set [2] deals with the molecule itself. The data set is described as above.

With “Bacillus cereus P5CR (Bc_2977), full-length (enzyme)”, the stoichiometry N (usually a count of units in the complex or per binding partner) in data set [1] is 10.

B1: Arabidopsis thaliana P5CR (δ1-pyrroline-5-carboxylate reductase) (enzyme, UniProt P54904 1-276, looked up)
chain: MEILPIPAESFKVGFIGAGKMAESIARGVVASGVLPPNRICTAVHSNLNRRDVFESFGVNVFSTSEEVVKESDVVIFSVKPQVVKKAVTELKSKLSKNKILVSVAAGIKLNDLQEWSGQDRFIRVMPNTPAAVGEAASVMSLGTGATEEDGAIVAMLFGAVGKILKADEKMFDAVTGLSGSGPAYIFLAIEALADGGVAAGLPRELALSLASQTVLGAATMVSKTGKHPGVLKDDVTSPGGTTIAGVHELEKGSFRATLMNAVVAAAKRSRELSQS
notes: Pyrroline-5-carboxylate reductase of Arabidopsis thaliana; coding gene cloned into pMCSG68 (construct as in Giberti et al., 2014); also called AtP5CR; P5C reductase; source: E. coli BL21 Gold, purified (HisTrap HP, TEV cleavage, second HisTrap HP pass); not shown: His6, N-terminal, cleaved; copies: 10
As to B1, the “stoichiometry N” value in data set [2] was found to be 10.

The record behind these values is publication PMC4522605, “Evolution of plant δ^1-pyrroline-5-carboxylate reductases from phylogenetic and structural perspectives” (Frontiers in Plant Science, 2015).
